Experimental data as given in US11419948B2, “Functionalized microgels with fibrin binding elements” (Georgia Tech Research Corporation, priority 2013, dated 2022).

T1: fibrinogen (Homo sapiens, UniProt P02671+P02675+P02679)
T1 sequence (P02671 20-629 limits assumed): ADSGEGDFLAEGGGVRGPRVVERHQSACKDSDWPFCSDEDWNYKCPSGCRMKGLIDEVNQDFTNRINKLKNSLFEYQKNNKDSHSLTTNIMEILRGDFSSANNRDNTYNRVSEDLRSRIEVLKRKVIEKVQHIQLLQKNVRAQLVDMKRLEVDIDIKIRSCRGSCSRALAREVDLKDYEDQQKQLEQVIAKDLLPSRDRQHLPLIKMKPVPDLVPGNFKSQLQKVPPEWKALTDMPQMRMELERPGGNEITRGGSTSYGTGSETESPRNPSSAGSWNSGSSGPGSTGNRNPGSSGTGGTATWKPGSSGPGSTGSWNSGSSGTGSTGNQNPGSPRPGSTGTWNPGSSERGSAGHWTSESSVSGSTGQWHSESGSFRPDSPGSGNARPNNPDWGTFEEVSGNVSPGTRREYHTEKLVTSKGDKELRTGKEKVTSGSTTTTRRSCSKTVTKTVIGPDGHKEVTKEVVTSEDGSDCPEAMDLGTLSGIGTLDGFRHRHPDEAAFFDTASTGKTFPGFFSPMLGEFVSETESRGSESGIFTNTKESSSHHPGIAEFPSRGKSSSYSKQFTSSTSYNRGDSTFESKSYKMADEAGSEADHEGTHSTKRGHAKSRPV
T1 sequence (P02675 31-491): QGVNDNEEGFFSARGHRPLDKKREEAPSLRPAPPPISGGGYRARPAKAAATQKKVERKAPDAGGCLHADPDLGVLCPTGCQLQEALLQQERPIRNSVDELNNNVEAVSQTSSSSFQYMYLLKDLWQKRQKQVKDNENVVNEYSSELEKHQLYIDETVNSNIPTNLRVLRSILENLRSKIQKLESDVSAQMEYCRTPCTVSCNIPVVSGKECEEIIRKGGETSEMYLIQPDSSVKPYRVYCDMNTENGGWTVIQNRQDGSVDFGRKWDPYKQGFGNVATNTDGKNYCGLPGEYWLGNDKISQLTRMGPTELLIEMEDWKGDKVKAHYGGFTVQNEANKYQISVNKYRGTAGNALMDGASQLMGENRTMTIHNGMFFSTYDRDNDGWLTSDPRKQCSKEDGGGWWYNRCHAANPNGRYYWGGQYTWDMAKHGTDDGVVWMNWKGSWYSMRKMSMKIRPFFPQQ
T1 sequence (P02679 27-453): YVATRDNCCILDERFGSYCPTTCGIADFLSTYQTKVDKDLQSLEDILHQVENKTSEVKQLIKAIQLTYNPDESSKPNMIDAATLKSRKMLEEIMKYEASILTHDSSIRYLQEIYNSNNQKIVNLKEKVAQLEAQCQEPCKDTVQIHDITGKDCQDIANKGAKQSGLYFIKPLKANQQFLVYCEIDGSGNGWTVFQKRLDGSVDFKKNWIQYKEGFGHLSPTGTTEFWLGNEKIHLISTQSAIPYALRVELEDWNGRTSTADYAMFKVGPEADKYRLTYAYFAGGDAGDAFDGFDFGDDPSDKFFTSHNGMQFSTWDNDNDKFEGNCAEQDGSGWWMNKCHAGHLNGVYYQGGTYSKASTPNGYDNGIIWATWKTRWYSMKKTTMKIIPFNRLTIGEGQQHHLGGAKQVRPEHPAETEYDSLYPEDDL

B1: PLPs: ultra-low crosslinked pNIPAm-AAc microgels conjugated to fibrin-specific sdFv H6 (conjugate)
VH: QVQLLESGGGLVQPGGSLRLSCAASGDRFTHNDMGWVRQAPGKGLEWVSTIPTTDGSTYYADSVKGRFTISRDNSKSTLYLQMNSLRAEDTAVYYCATGYMWKAPAYVKYWGQGTLVTVSSAAAEQKLISEEDLNSAAHYTDIG
B2: H6: fibrin-specific human sdFv clone from phage biopanning, SEQ ID NO: 1 (protein)
VHH: B1 VH

Assays:
[1] = test system: femoral vein injury; assay: Rat femoral vessel traumatic injury model; assay type: in vivo
From the text: To test the efficacy of PLPs in hemostasis, a well-established rat femoral vessel traumatic injury model was used^13-15. This model results in an easily visualized, continuous stream of blood flowing from the injury site. All protocols were approved by the Georgia Institute of Technology IACUC. Adult Sprague-Dawley male rats (200-250 g) were anesthetized with 5% isoflurane. Following anesthesia, an incision was made on the right hindlimb to expose the femoral vessels. A portion of the femoral vein was isolated from the surrounding connective tissue by placing a small piece of foil between the vessel and the underlying tissue. Following isolation of the vessel, the cavity will be irrigated with 0.9% irrigation fluid at 37° C. Animals were then administered 500 μL of saline (vehicle), purified human factor VIIa ([…], 100 μg/kg the current standard of care, purchased from Innovative Research), PLPs (20 mg/mL) or S11-ULC microgels (20 mg/mL) via tail vein injection using a 24 gauge catheter. Six (6) animals were tested per condition. Following a 5 minute circulation time, injury was induced to the right femoral vein by piercing the vein with a 22 gauge needle. A gauze was lightly placed below the injury site to collect blood, allowing for better visualization of the injury site as well as measurement of total blood loss. Gauze were changed every ten seconds for the first 30 seconds following injury and then every 30 s until bleeding ceased. Bleeding time was defined as the time required for bleeding to cease for a minimum of 10 s. Following cessation of bleeding, animals were euthanized with carbon dioxide. Following cessation of bleeding, animals were euthanized and organs separated, fixed with 10% formalin, paraffin embedded and 5 μm sections were produced using a Microm […] Microtome (Thermo Scientific). Co-localization of PLPs were characterized through immunofluorescence staining for the MYC-tag encoded on the sdFvs and through Martius Scarlet Blue (MSB) staining for fibrin in adjacent serial sections. For MYC-tag staining, samples were counter stained with Hoescht (Invitrogen) to visualize nuclei. All statistical analyses for bleeding time studies were performed with Prism software program (GraphPad, San Diego Calif.). Bleeding and blood weight data were statistically analyzed using repeated measures analysis of variance using the Tukey test at a 95% confidence interval.

[2] = target: T1, fibrinogen; assay: Clottability assay (protein incorporation into clot); assay type: biochemical; details: all H6 concentrations tested
Experimental: The clottability assay involved clotting purified fibrinogen or fibrinogen in the presence of H6 or S11, subsequently removing the gelled clot from solution, and measuring the amount of protein that was not incorporated into the clot. The same molar ratios of H6 and S11 to fibrinogen were investigated as per the turbidity assay. Soluble protein concentrations were measured using standard Quant-It assay protocols, and results were normalized to unpolymerized fibrinogen or fibrinogen-nanobody solutions of identical protein composition.

Molecule	total blood loss ([1]; compared to S11-ULC microgels, p<0.05)	fibrin staining in vessels ([1]; postmortem)	localization at wound (MYC-tag staining, MSB fibrin staining) ([1]; postmortem wound tissue)	blood loss over time (bleeding dynamics) ([1]; rat)	bleeding time compared to vehicle only ([1]; rat, tail vein injection)	Bleeding time ([1]; rat, tail vein injection, 5 minute circulation time) [s]	protein incorporation (clottability) [2]
B1	significantly less	higher levels of fibrin staining	co-localization of PLPs with fibrin clots	slowest blood loss over time	significantly decreased	117 ± 16	
B2							greater than 80%
